Source: patent US20230303667A1 (EMORY UNIVERSITY, published 2023)

T1: Ebola Zaire (Kikwit strain) glycoprotein (Ebola Zaire (Kikwit strain), UniProt P87666 33-676)
T1 sequence: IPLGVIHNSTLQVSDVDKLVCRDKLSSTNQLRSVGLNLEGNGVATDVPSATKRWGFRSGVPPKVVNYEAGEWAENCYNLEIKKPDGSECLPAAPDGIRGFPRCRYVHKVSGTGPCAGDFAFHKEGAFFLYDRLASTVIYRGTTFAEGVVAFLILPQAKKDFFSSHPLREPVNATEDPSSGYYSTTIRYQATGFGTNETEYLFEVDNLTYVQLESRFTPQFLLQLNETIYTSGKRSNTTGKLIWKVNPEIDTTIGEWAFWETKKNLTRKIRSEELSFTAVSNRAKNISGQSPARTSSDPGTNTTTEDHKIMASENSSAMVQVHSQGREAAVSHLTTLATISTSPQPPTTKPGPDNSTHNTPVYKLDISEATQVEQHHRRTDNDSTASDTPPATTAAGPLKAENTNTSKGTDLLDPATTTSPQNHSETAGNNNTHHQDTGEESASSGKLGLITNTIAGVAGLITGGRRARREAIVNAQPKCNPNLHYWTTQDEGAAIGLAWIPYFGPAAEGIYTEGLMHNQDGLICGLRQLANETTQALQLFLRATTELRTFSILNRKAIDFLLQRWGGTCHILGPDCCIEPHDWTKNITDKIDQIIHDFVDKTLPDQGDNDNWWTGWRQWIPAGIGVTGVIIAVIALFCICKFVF

B1: 5.6.1A02 (antibody, V domains shown)
VH: EVQLVESGGGLIQPGGSLRLSCAASGFAVRSNYLSWVRQAPGKGLEWVSLIYSGGLTAYADSVEGRFTISRDNSKNTLYLQMNSLRVEDTALYYCARVASSAGTFYYGMDVWGQGTTVTVSS
VL: not shown
B2: 2.1.1D07 (antibody, V domains shown)
VH: EVQLLESGGGLVQPGGSLRLSCAASGFTFSTYGMSWVRQAPGKGLEWVSGISGSGGITYYADSVRGRFTISRDNSKNTLYLRMNSLRAEDTAVYYCAKVGEYYDFWSGYSPFEYWGQGTL
VL: EIVLTQSPGTLSLSPGERATLSCRASQSVSSSYLAWYQQKPGQAPRLLIYGAFNRATGIPDRFSGSGSGTDFTLTISRLEPEDFAVYYCQLYGSSPWTFGQGTKVEIK
B3: 2.1.1D05 (antibody, V domains shown)
VH: EVQLVESGGGLVKPGGSLRLSCAASGFTFSNAWMNWVRQAPGKGLEWVGRIKSKTDGGAADYAAPVKGRFTISRDDSKNTLYLQMNSLKTEDTAVYFCTTVYRYNYDSVWGQGTLVTVSS
VL: QSVLTQPPSVSGAPGQRVTISCTGSSSNIGAGYDVYWYQQLPGTAPKLLIYGNSNRPSGVPDRFSGSKSGTSASLAITGLQAEDEADYYCQSFDSSLRDSWVFGGGTKLTVL
B4: 9.6.3D06 (antibody, V domains shown)
VH: EVQLLESGGGLVQPGGSLRLSCAASGFTFSKYAMIWVRQAPGKGLQWVAGINKSGGRTYYADSVRGRFTISRDNSKNTLYLQMKSLRADDTAMYYCAKEGSPLSDVLLVAAPFGWFDPWGQGTLVTVSS
VL: DIQMTQSPSTLSASVGDRVTITCRASQRINNLVAWYQQKPGKAPKVMIYDASSLKSGVPSRFSGSGSGTEFTLTISSLQPDDFATYFCQQYDTDSGWTFGQGTKVEIK
B5: 5.1.10B3 (antibody, V domains shown)
VH: EVQLVESGGGLVQPGGSLRLSCAASGFTFRSYDMHWVRQATGKGLEWVSAIGTAGDTYYPGSVKGRFTISRENAKNSLYLQMNSLRAEDTAVYYCARVRFGDTAVDYWGQGTLVTVSS
VL: DIQMTQSPSSLSASVGDRVTITCRASQSISSFLNWHQQKPGKAPKLLIYAASSLQSGVPSRFSGSGSGTDFTLTISSLQPEDFAIYYCQQSYISPFTFGPGTKVDIK

Molecular target: T1, Ebola Zaire (Kikwit strain) glycoprotein
Test: cell-based or functional assay

Row | Binder | PRNT50 (ug/ml) for Ebola Zaire (Kikwit strain)
1 | B1 | 0.195 µg/mL
2 | B2 | 6.25 µg/mL
3 | B3 | 3.13 µg/mL
4 | B4 | 1.57 µg/mL
5 | B5 | 3.13 µg/mL
